Assay results: patent US20060286035A1 (CYTOS BIOTECHNOLOGY, published 2006)

Experiments:
T-cadherin [1] = target: T1, T-cadherin (mouse, UniProt Q9WTR5 139-693); assay: flow cytometry titration on 293-EBNA cells transfected with pGF-T-cadherin; half-maximal concentration divided by the molecular weight
T1 construct: whole, on cells; also called adiponectin receptor; pGF-T-cadherin
T1 sequence (looked up): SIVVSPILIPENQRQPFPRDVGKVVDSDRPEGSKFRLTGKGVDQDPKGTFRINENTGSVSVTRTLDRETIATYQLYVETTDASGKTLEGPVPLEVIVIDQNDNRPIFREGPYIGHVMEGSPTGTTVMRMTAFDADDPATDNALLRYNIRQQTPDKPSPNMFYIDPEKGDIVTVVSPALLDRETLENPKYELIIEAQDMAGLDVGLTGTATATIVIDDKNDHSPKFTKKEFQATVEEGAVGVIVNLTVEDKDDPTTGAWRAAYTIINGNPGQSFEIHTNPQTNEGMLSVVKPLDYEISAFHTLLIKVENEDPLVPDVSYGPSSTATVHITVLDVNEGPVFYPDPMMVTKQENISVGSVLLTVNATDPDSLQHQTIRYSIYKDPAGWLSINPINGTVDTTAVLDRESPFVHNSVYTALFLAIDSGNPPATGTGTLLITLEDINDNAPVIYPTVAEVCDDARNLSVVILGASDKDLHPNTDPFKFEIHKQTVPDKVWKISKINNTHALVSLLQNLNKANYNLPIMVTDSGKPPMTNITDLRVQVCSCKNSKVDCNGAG
Procedure: (§1) 293-EBNA cells were transfected with pGF-T-cadherin. After two days the cells were harvested and stained with decreasing amounts of Acrp30-FLAG-C (50, 25, 12.5, 6.3, 3.1, 1.6, 0.8, 0.4 and 0 μg/ml) as described in example 6. To evaluate the dissociation constant, the geometric mean fluorescence (GMFl) of the GFP positive population was determined using FACS Winmdi software. The GMFl was then normalized as follows: (GMFL of the sample minus GMFl of samples stained with secondary reagents only) divided by maximal GMFL. The protein concentration is shown on the X axis and the normalised GMFL is shown on the Y axis.
(§2) In order to determine the dissociation constant of the adiponectin-T-cadherin interaction, 293-EBNA cells were transfected with pGF-T-cadherin as described in example 6. […] The cells were then analysed by FACS using a FACS Calibur (Becton Dickinson). To determine the binding affinity, the geometric mean fluorescence of the GFP positive population was determined using FACS WINmdi software. The geometric mean fluorescence was then normalised by deducing the mean fluorescence of the sample which was stained with the secondary reagents only from the different samples and then all the values were divided by the maximal fluorescence. The normalised values for the mean fluorescence were than plotted against the concentration of Acrp30-FLAG-C. […]

T-cadherin [2] = target: T1, T-cadherin; assay: flow cytometry titration on 293-EBNA cells transfected with pGF-T-cadherin; normalised geometric mean fluorescence of the GFP positive population
Procedure: as §1, §2

Kd (T-cadherin [1]): 83 nM
EC50 (T-cadherin [2]): 2.2 µg/mL
B1: Acrp30-FLAG-C (ligand)
chain: DADPEDDVTTTEELAPALVPPPKGTCAGWMAGIPGHPGHNGTPGRDGRDGTPGEKGEKGDAGLLGPKGETGDVGVTGAEGPRGFPGTPGRKGEPGEAAYMYRSAFSVGLETRVTVPNVPIRFTKIFYNQQNHYDGSTGKFYCNIPGLYYFSYHITVYMKDVKVSLFKKDKAVLFTYDQYQEKNVDQASGSVLLHLEVGDQVWLQVYGDGDHNGLYADNVNDSTFTGFLLYHDTNSLDDYKDDDDK
notes: The molecular weight used for the Kd is 26546 g/mol (monomer); Three bands on SDS-PAGE from differential glycosylation; also called Adiponectin-bait Acrp30-FLAG-C; adiponectin
